The values that follow come from the supplement of paper PMC10567573.

± gives the standard deviation.

The data set is described as follows: protein stability index of a GFP-peptide fusion (GPS, HEK-293T) (PSI 1-6); higher = more stable.
Where [1] appears, read: treatment: DMSO, c terminus: a fixed tail appended.
[2] abbreviates: treatment: MLN4924 1 uM, 8 h, c terminus: a fixed tail appended.
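Also: 24-mer peptide tiles fused after GFP, lentivirally expressed, FACS-sorted into six equal bins by GFP/DsRed ratio, decoded by Illumina sequencing, PSI is the read-weighted mean bin number.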

As to SMEGVRWAFSCGTWLPSRAEWLLA [AASDHPPT], the protein stability index is, setting by setting: under setting [1], 2.65 ± 0.57; under setting [2], 2.79 ± 0.52.
Taken in the same sequence, the figures for SMEIYGSAVADKLDNSRSILKRRY [CTDNEP1] were 3.28 ± 0.22 and 3.71 ± 0.41.
The corresponding values for SNANYSVKKCIFLLFINHRLVEST [MLH1] are 3.35 ± 0.46 and 3.25 ± 1.2.
The corresponding values for SNVRGSLNVNLNSVVLRRARGGAV [DUSP5] are 3.74 ± 0.24 and 4.1 ± 0.29.
As for SPFAQELLDDGQQASPYHPGSCGA [ELF3], the protein stability index runs as follows: under setting [1], 4.83 ± 0.31; under setting [2], 5.04 ± 0.16.
Taken in the same sequence, the figures for SPGELEEDLLLPGACPGADEAGGG [WEE1] were 5.42 ± 0.24 and 5.5 ± 0.12.
Taken in the same sequence, the figures for SPLHLVQMPPVIVETARSHQRSSS [PI4K2A] were 4.22 ± 0.18 and 4.24 ± 0.2.
Taken in the same sequence, the figures for SPPVMVAGGRVFVLPCIQQIQRIS [FLOT1] were 2.15 ± 0.5 and 1.96 ± 0.27.
The sequence SPVNMVTVAMVAGQCEFAHILHS [ZNF649] came in with a protein stability index (treatment: DMSO, c terminus: native) of 2.08 ± 0.19 and a protein stability index (treatment: MLN4924 1 uM, 8 h, c terminus: native) of 1.87 ± 0.25.
For the sequence SQILQNKKHKNSQLDKNSEVYQEV [FAM98B], the protein stability index runs as follows: under setting [1], 4.46 ± 0.42; under setting [2], 4.81 ± 0.067.
The corresponding values for SQLSMKAGLENTVAETECRYALQL [KRT13] are 3.37 ± 0.2 and 3.35 ± 0.25.
For the sequence SQPGNAVIDKETIDLLAFTSVAEL [SDE2], the protein stability index came out at 3.43 ± 0.3 under setting [1] and 3.46 ± 0.32 under setting [2].
SQSETSSAVSTPSPVTRTRSLSAC [DLC1]: the protein stability index runs as follows: under setting [1], 4.89 ± 0.23; under setting [2], 4.87 ± 0.14.
The corresponding values for SQYQCENGVSGPSQDLLPPPNPYP [TBX5] are 4.75 ± 0.16 and 4.64 ± 0.14.
Take SRAANQEQRANDLEQIMESVKSKI [CEP70]: the protein stability index runs as follows: under setting [1], 4.44 ± 0.22; under setting [2], 4.49 ± 0.14.
Taken in the same sequence, the figures for SRAILQRVQAAAFGPGQTLLSSVH [ALKBH7] were 2.72 ± 0.14 and 2.65 ± 0.35.
Consider SRLLGAAAGQRSRPSTYYELLGVH [DNAJC4], for which the protein stability index is, setting by setting: under setting [1], 2.54 ± 0.57; under setting [2], 2.52 ± 0.42.
Turning to SRMKFRGNGALSNISDLPFLAENS [LCOR], the protein stability index reads like this: under setting [1], 3.32 ± 0.31; under setting [2], 3.47 ± 0.27.
As to SRSENVLSRLSLMAMPNGFHEDGP [PSD2], the protein stability index amounted to 3.73 ± 0.17 under setting [1] and 3.87 ± 0.27 under setting [2].
The corresponding values for SRSNSRSRSYSPRRSRGSPRYSPR [SRSF1] are 5.28 ± 0.26 and 5.56 ± 0.065.
Regarding SRSPSVEGSLWAVGTESQGRDWRH [PXN], the protein stability index runs as follows: under setting [1], 4.04 ± 0.11; under setting [2], 4.05 ± 0.23.
Taken in the same sequence, the figures for SRSTLECAYRTHLVAGIGFYQHLL [SMG5] were 2.9 ± 0.35 and 2.83 ± 0.57.
The corresponding values for SRSYSPRRSRGSPRYSPRHSRSRS [SRSF1] are 5.39 ± 0.24 and 5.5 ± 0.25.
Regarding SRVLLSAIEGIPGSDYVNANYIDG [PTPRD], the protein stability index by setting is: under setting [1], 3.28 ± 0.26; under setting [2], 3.73 ± 0.24.
The corresponding values for SSCHFARDSSFLISGGFDRTVAIW [WDR88] are 2.42 ± 0.45 and 2.51 ± 0.55.
For SSCIPKAFGNPKFALQGLPLNCAP [IRX6], the protein stability index worked out at 2.46 ± 0.25 under setting [1] and 2.75 ± 0.18 under setting [2].
The corresponding values for SSGSFCYCHPDSETDEDEEEGDEQ [GMCL1] are 5.52 ± 0.17 and 5.39 ± 0.14.
Taken in the same sequence, the figures for SSIVWRFVEDSFDPNINPTIGASF [RAB22A] were 2.31 ± 0.57 and 1.71 ± 0.47.
The corresponding values for SSQGVATPAITVSNSCPAELPNIK [TFE3] are 5 ± 0.11 and 4.96 ± 0.24.
SSSVETGPSVSEPPGLPRVSAYVD [SPATS1]: the protein stability index runs as follows: under setting [1], 4.77 ± 0.35; under setting [2], 4.72 ± 0.21.
On to SSTQLCVLNDRFQRQKYLSLQQMQ [NANOGP8], for which the protein stability index runs as follows: under setting [1], 2.65 ± 0.14; under setting [2], 2.83 ± 0.1.
The corresponding values for SSVECYNLETNEWRYVSSLPQPLA [KLHL14] are 2.6 ± 0.19 and 2.92 ± 0.24.
The sequence STHELEKKELEENFEKLRLSLQDQ [MTUS2] came in with a protein stability index under setting [1] of 5.43 ± 0.14 and a protein stability index under setting [2] of 5.33 ± 0.12.
Taken in the same sequence, the figures for STIGFKLPNHRAAKRLWKVCVEHH [EPB41L3] were 2.26 ± 0.27 and 2.58 ± 0.45.
Taken in the same sequence, the figures for STNGEKTKSPCESNNKKNDEMQEV [SPANXN3] were 5.53 ± 0.16 and 5.41 ± 0.19.
The corresponding values for STVKTETISFGSVSPGGVKLEIST [EPB41L3] are 3.19 ± 0.58 and 3.06 ± 0.42.
Consider STWSDPSVNISLDNLLPGMQPSKP [CLINT1], for which the protein stability index is 4.3 ± 0.12 under setting [1] and 4.25 ± 0.099 under setting [2].
STYRKRTPVMEGYVEVKEGKTWKQ [LOXL2] registered a protein stability index under setting [2] of 3.92 ± 0.2.
As to STYRPLPDPSVWSRRYTEMALPFF [MYORG], the protein stability index runs as follows: under setting [1], 2.36 ± 0.4; under setting [2], 2.22 ± 0.13.
Taken in the same sequence, the figures for SVEYGYRPGATAVPTPLTNVQILL [FCHO1] were 2.06 ± 0.62 and 2.03 ± 0.48.
The corresponding values for SVKSKIGELEDESLNRACHQQNKI [CEP70] are 4.63 ± 0.41 and 4.7 ± 0.25.
The corresponding values for SVPIDLQKVDQFDPFTVPTISFIC [PRIM1] are 2.55 ± 0.44 and 2.48 ± 0.74.
Turning to SVVNVGCGPAEERVLLTGLHAVAD [YPEL3], the protein stability index turned out to be 3 ± 0.78 under setting [1] and 3.29 ± 0.7 under setting [2].
The corresponding values for SVWQHIDCMGIDRQHIPDTYLCER [KMT2E] are 2.83 ± 0.2 and 2.81 ± 0.4.
Taken in the same sequence, the figures for SWPRASPASGASSIKPEASQMPPP [SCNN1D] were 4.62 ± 0.27 and 4.63 ± 0.38.
Sequence SWRWIMLILFAWGTLLFYIGGHLV [FUT8] came in with a protein stability index under setting [1] of 2.42 ± 0.14 and a protein stability index under setting [2] of 2.27 ± 0.47.
Taken in the same sequence, the figures for SYVRSRKRLREEEAARLFKQIVSA [TRIB1] were 2.53 ± 0.38 and 3.09 ± 0.27.
The corresponding values for TAENERLQKKVEQLSRELSTLRNL [CEBPB] are 3.69 ± 0.2 and 3.95 ± 0.2.
The corresponding values for TAGKVLAHFYGVKLEGKVPMHKLF [ESRRA] are 2.41 ± 0.39 and 2.44 ± 0.79.
In turn, TAGQERFRALAPMYYRGSAAAIIV [RAB22A] displayed a protein stability index under setting [1] of 2.26 ± 0.091 and a protein stability index under setting [2] of 2.25 ± 0.26.
The corresponding values for TALTSFCAKYTYPVCSALLDPVLQ [FANCE] are 2.31 ± 0.37 and 2.23 ± 0.35.
In turn, TARRLLSQVRALDRFQVPTTEVNA [NFE2L1] gave a protein stability index under setting [1] of 3.02 ± 0.07.
With TCIDMDWKVLTWLRYTLWIPLYPL [HACD3], the protein stability index runs as follows: under setting [1], 3.08 ± 0.28; under setting [2], 3.29 ± 0.5.
The corresponding values for TCLPLGVLMKGQHLHLETFKAVLD [PRAME] are 2.36 ± 0.25 and 2.32 ± 0.32.
The corresponding values for TDLPECEQSSARQKASLLIQQALT [TCF25] are 3.47 ± 0.36 and 3.66 ± 0.36.
Take TEDVGVVCSDKRIPGFKFDNSLIN [LOXL2]: the protein stability index was 3.76 ± 0.28 under setting [1] and 3.75 ± 0.3 under setting [2].
Regarding TEELIVQTKQVYDAVGMLGIEEVT [NLN], the protein stability index under setting [1] came to 4.23 ± 0.17 and the protein stability index under setting [2] worked out at 4.1 ± 0.45.
The corresponding values for TEEQTRQERQGPAKPEVLSIQWPG [NECAB1] are 5.07 ± 0.058 and 5.14 ± 0.15.
Taken in the same sequence, the figures for TEIEEELKSLDKEISEAFTSTGFD [BCL2L13] were 5.16 ± 0.27 and 5.26 ± 0.34.
Taken in the same sequence, the figures for TEPLTHWYQVRCLFQSPLFAKAGD [CARM1] were 2.11 ± 0.36 and 2.15 ± 0.61.
In turn, TEPPVALAPGPAPTRCLPGHKEEE [ESRRA] registered a protein stability index under setting [1] of 5.28 ± 0.12 and a protein stability index under setting [2] of 5.36 ± 0.34.
Taken in the same sequence, the figures for TFASLIGPFGGFFASGFKRAFKIK [CDS1] were 2.66 ± 0.73 and 1.85 ± 0.26.
The corresponding values for TGEDSAFQEPDSPLPPARSPTEPG [WEE1] are 5.62 ± 0.15 and 5.44 ± 0.34.
The corresponding values for TGGLGGERERQPCGDGNTETHRAP [SOAT2] are 5.37 ± 0.15 and 5.31 ± 0.19.
TGKGPSTHTQIDQQPPRLLIVHIA [M1AP]: the protein stability index under setting [1] was found to be 2.54 ± 0.34 and the protein stability index under setting [2] amounted to 2.44 ± 0.6.
The corresponding values for TIRLRPRQVLCEKCKSTLSPPEAS [PWWP2B] are 3.23 ± 0.3 and 3.75 ± 0.6.
The corresponding values for TITLNCPRNSDMKNQGEENGFPDS [EDARADD] are 4.11 ± 0.51 and 4.23 ± 0.19.
Taken in the same sequence, the figures for TLALLLNFLACLASFCVETNNGAG [SCAMP3] were 3.06 ± 0.2 and 2.88 ± 0.89.
As for TLLSVLKREAGNLTKATAPDQKSS [SSNA1], the protein stability index under setting [1] turned out to be 2.69 ± 0.13 and the protein stability index under setting [2] amounted to 2.83 ± 0.3.
The corresponding values for TLNVIELNVQKTVDYTGQAKAQVR [STX11] are 2.93 ± 0.28 and 3.19 ± 0.31.
Taken in the same sequence, the figures for TLPEYRVSVPENLPVGTQLLTVTA [PCDHGA10] were 3.36 ± 0.29 and 3.24 ± 0.3.
The corresponding values for TLSGTCLLIANKRQSYDISIVAQV [CARM1] are 2.38 ± 0.69 and 2.68 ± 1.5.
Regarding TLSNPQMSLEGTEKASWLGEQPQF [ELF3], the protein stability index runs as follows: under setting [1], 4.26 ± 0.34; under setting [2], 4.21 ± 0.37.
